Experimental findings from the supplement of paper PMC5998384 are described below.

The test system of data set [1] is HeLa Kyoto. Put plainly: solubility in G1/S (NP-40 vs SDS abundance) (log2 ratio); higher = more soluble. The conditions noted are these: cell cycle stage: G1/S.
In data set [2] the test system is HeLa Kyoto. Put plainly: melting temperature (median over replicates), in situ; higher = more thermally stable.
In data set [3] the test system is HeLa Kyoto. Put plainly: solubility change mitosis vs G1/S (difference of NP-40 vs SDS log2 ratios) (log2 ratio difference); higher = more soluble in mitosis.
The test system of data set [4] is HeLa Kyoto. Put plainly: thermal stability score vs G1/S (z-score of summed log2 fold changes over temperatures); higher = more thermally stable than in G1/S.
[5] abbreviates: cell cycle stage: early G1 (4.5 h after nocodazole release).
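Wherever melting temperature (median over replicates), in situ is given: HeLa Kyoto cells synchronized by double thymidine or nocodazole block, proteins quantified by TMT10plex mass spectrometry, three independent biological replicates.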
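Wherever solubility change mitosis vs G1/S (difference of NP-40 vs SDS log2 ratios) is given: synchronized HeLa Kyoto cells (double thymidine block for G1/S, nocodazole release for mitosis), protein amounts in NP-40 versus SDS lysates quantified by mass spectrometry, three biological replicates.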
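Wherever solubility in G1/S (NP-40 vs SDS abundance) is given: HeLa Kyoto cells arrested at G1/S by double thymidine block, proteins quantified by TMT10plex mass spectrometry in mild NP-40 versus SDS extracts, three biological replicates.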
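Wherever thermal stability score vs G1/S (z-score of summed log2 fold changes over temperatures) is given: synchronized HeLa Kyoto cells, proteins quantified by TMT10plex mass spectrometry, three biological replicates, mitosis taken 0.5 h after nocodazole release, G1/S directly after double thymidine block.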

Take “MTTDEGAKNNEESPTATVAEQGEDITSKKDRGVLKIVKRVGNGEETPMIGDKVYVHYKGKLSNGKKFDSSHDRNEPFVFSLGKGQVIKAWDIGVATMKKGEICHLLCKPEYAYGSAGSLPKIPSNATLFFEIELLDFKGEDLFEDGGIIRRTKRKGEGYSNPNEGATVEIHLEGRCGGRMFDCRDVAFTVGEGEDHDIPIGIDKALEKMQREEQCILYLGPRYGFGEAGKPKFGIEPNAELIYEVTLKSFEKAKESWEMDTKEKLEQAAIVKEKGTVYFKGGKYMQAVIQYGKIVSWLEMEYGLSEKESKASESFLLAAFLNLAMCYLKLREYTKAVECCDKALGLDSANEKGLYRRGEAQLLMNEFESAKGDFEKVLEVNPQNKAARLQISMCQKKAKEHNERDRRIYANMFKKFAEQDAKEEANKAMGKKTSEGVTNEKGTDSQAMEEEKPEGHV [FKBP5]”: in the data set on HeLa Kyoto [1], the “solubility in G1/S (log2)” value was 0.0823. For the same sequence, the melting temperature was 46.7 °C in the data set with HeLa Kyoto [2] (cell cycle stage: G1/S) and 48.6 °C in the data set on HeLa Kyoto [2] (cell cycle stage: mitosis). Besides, the “solubility change mitosis (log2)” value in the data set with HeLa Kyoto [3] is -0.124. Moreover, the thermal stability score was found to be 2.48 with HeLa Kyoto [4] (setting [5]) and 4.23 with HeLa Kyoto [4] (cell cycle stage: mitosis).
In the case of “MTTFGAVAEWRLPSLRRATLWIPQWFAKKAIFNSPLEAAMAFPHLQQPSFLLASLKADSINKPFAQQCQDLVKVIEDFPAKELHTIFPWLVESIFGSLDGVLVGWNLRCLQGRVNPVEYSIVMEFLDPGGPMMKLVYKLQAEDYKFDFPVSYLPGPVKASIQECILPDSPLYHNKVQFTPTGGLGLNLALNPFEYYIFFFALSLITQKPLPVSLHVRTSDCAYFILVDRYLSWFLPTEGSVPPPLSSSPGGTSPSPPPRTPAIPFASYGLHHTSLLKRHISHQTSVNADPASHEIWRSETLLQVFVEMWLHHYSLEMYQKMQSPHAKLEVLHYRLSVSSALYSPAQPSLQALHAYQESFTPTEEHVLVVRLLLKHLHAFANSLKPEQASPSAHSHATSPLEEFKRAAVPRFVQQKLYLFLQHCFGHWPLDASFRAVLEMWLSYLQPWRYAPDKQAPGSDSQPRCVSEKWAPFVQENLLMYTKLFVGFLNRALRTDLVSPKHALMVFRVAKVFAQPNLAEMIQKGEQLFLEPELVIPHRQHRLFTAPTFTGSFLSPWPPAVTDASFKVKSHVYSLEGQDCKYTPMFGPEARTLVLRLAQLITQAKHTAKSISDQCAESPAGHSFLSWLGFSSMDTNGSYTANDLDEMGQDSVRKTDEYLEKALEYLRQIFRLSEAQLRQFTLALGTTQDENGKKQLPDCIVGEDGLILTPLGRYQIINGLRRFEIEYQGDPELQPIRSYEIASLVRTLFRLSSAINHRFAGQMAALCSRDDFLGSFCRYHLTEPGLASRHLLSPVGRRQVAGHTRGPRLSLRFLGSYRTLVSLLLAFFVASLFCVGPLPCTLLLTLGYVLYASAMTLLTERGKLHQP [SMPD4]”, the “solubility in G1/S (log2)” value with HeLa Kyoto [1] was -0.601. Moreover, the results for the melting temperature in the data set with HeLa Kyoto [2] (cell cycle stage: G1/S) and in the data set on HeLa Kyoto [2] (cell cycle stage: mitosis) were 51.7 °C and 50.2 °C, respectively. Besides, in the data set with HeLa Kyoto [3], the “solubility change mitosis (log2)” value was 0.185. Also, the results for the thermal stability score in the data set with HeLa Kyoto [4] (setting [5]) and in the data set on HeLa Kyoto [4] (cell cycle stage: mitosis) were -0.683 and -0.99, respectively.
Take “MTTLDDKLLGEKLQYYYSSSEDEDSDHEDKDRGRCAPASSSVPAEAELAGEGISVNTGPKGVINDWRRFKQLETEQREEQCREMERLIKKLSMTCRSHLDEEEEQQKQKDLQEKISGKMTLKEFAIMNEDQDDEEFLQQYRKQRMEEMRQQLHKGPQFKQVFEISSGEGFLDMIDKEQKSIVIMVHIYEDGIPGTEAMNGCMICLAAEYPAVKFCKVKSSVIGASSQFTRNALPALLIYKGGELIGNFVRVTDQLGDDFFAVDLEAFLQEFGLLPEKEVLVLTSVRNSATCHSEDSDLEID [PDCL]”: in the data set with HeLa Kyoto [1], the “solubility in G1/S (log2)” value is -0.0669. The same sequence yielded a melting temperature with HeLa Kyoto [2] (cell cycle stage: mitosis) of 51.5 °C. Also, the “solubility change mitosis (log2)” value with HeLa Kyoto [3] was 0.0999. Besides, the thermal stability score was 0.206 with HeLa Kyoto [4] (setting [5]) and -0.546 with HeLa Kyoto [4] (cell cycle stage: mitosis).
With “MTTPANAQNASKTWELSLYELHRTPQEAIMDGTEIAVSPRSLHSELMCPICLDMLKNTMTTKECLHRFCSDCIVTALRSGNKECPTCRKKLVSKRSLRPDPNFDALISKIYPSREEYEAHQDRVLIRLSRLHNQQALSSSIEEGLRMQAMHRAQRVRRPIPGSDQTTTMSGGEGEPGEGEGDGEDVSSDSAPDSAPGPAPKRPRGGGAGGSSVGTGGGGTGGVGGGAGSEDSGDRGGTLGGGTLGPPSPPGAPSPPEPGGEIELVFRPHPLLVEKGEYCQTRYVKTTGNATVDHLSKYLALRIALERRQQQEAGEPGGPGGGASDTGGPDGCGGEGGGAGGGDGPEEPALPSLEGVSEKQYTIYIAPGGGAFTTLNGSLTLELVNEKFWKVSRPLELCYAPTKDPK [RING1]”, the “solubility in G1/S (log2)” value in the data set with HeLa Kyoto [1] is -0.00962. In the data set with HeLa Kyoto [2] (cell cycle stage: mitosis), this sequence had a melting temperature of 50 °C. Moreover, the “solubility change mitosis (log2)” value in the data set on HeLa Kyoto [3] was 0.222. Besides, the values for the thermal stability score with HeLa Kyoto [4] (setting [5]) and with HeLa Kyoto [4] (cell cycle stage: mitosis) were 0.769 and 1.05, respectively.
With “MTTSGALFPSLVPGSRGASNKYLVEFRAGKMSLKGTTVTPDKRKGLVYIQQTDDSLIHFCWKDRTSGNVEDDLIIFPDDCEFKRVPQCPSGRVYVLKFKAGSKRLFFWMQEPKTDQDEEHCRKVNEYLNNPPMPGALGASGSSGHELSALGGEGGLQSLLGNMSHSQLMQLIGPAGLGGLGGLGALTGPGLASLLGSSGPPGSSSSSSSRSQSAAVTPSSTTSSTRATPAPSAPAAASATSPSPAPSSGNGASTAASPTQPIQLSDLQSILATMNVPAGPAGGQQVDLASVLTPEIMAPILANADVQERLLPYLPSGESLPQTADEIQNTLTSPQFQQALGMFSAALASGQLGPLMCQFGLPAEAVEAANKGDVEAFAKAMQNNAKPEQKEGDTKDKKDEEEDMSLD [ADRM1]”, the “solubility in G1/S (log2)” value in the data set on HeLa Kyoto [1] is 0.469. The results for the melting temperature in the data set with HeLa Kyoto [2] (cell cycle stage: G1/S) and in the data set on HeLa Kyoto [2] (cell cycle stage: mitosis) were 51.3 °C and 51.1 °C, respectively. Moreover, the “solubility change mitosis (log2)” value with HeLa Kyoto [3] was -0.24. Besides, the thermal stability score in the data set with HeLa Kyoto [4] (setting [5]) was 0.363; in the data set on HeLa Kyoto [4] (cell cycle stage: mitosis), -2.12.
Turning to “MTTSHMNGHVTEESDSEVKNVDLASPEEHQKHREMAVDCPGDLGTRMMPIRRSAQLERIRQQQEDMRRRREEEGKKQELDLNSSMRLKKLAQIPPKTGIDNPMFDTEEGIVLESPHYAVKILEIEDLFSSLKHIQHTLVDSQSQEDISLLLQLVQNKDFQNAFKIHNAITVHMNKASPPFPLISNAQDLAQEVQTVLKPVHHKEGQELTALLNTPHIQALLLAHDKVAEQEMQLEPITDERVYESIGQYGGETVKIVRIEKARDIPLGATVRNEMDSVIISRIVKGGAAEKSGLLHEGDEVLEINGIEIRGKDVNEVFDLLSDMHGTLTFVLIPSQQIKPPPAKETVIHVKAHFDYDPSDDPYVPCRELGLSFQKGDILHVISQEDPNWWQAYREGDEDNQPLAGLVPGKSFQQQREAMKQTIEEDKEPEKSGKLWCAKKNKKKRKKVLYNANKNDDYDNEEILTYEEMSLYHQPANRKRPIILIGPQNCGQNELRQRLMNKEKDRFASAVPHTTRSRRDQEVAGRDYHFVSRQAFEADIAAGKFIEHGEFEKNLYGTSIDSVRQVINSGKICLLSLRTQSLKTLRNSDLKPYIIFIAPPSQERLRALLAKEGKNPKPEELREIIEKTREMEQNNGHYFDTAIVNSDLDKAYQELLRLINKLDTEPQWVPSTWLR [MPP5]”, the “solubility in G1/S (log2)” value in the data set with HeLa Kyoto [1] is 0.0594. The melting temperature in the data set on HeLa Kyoto [2] (cell cycle stage: G1/S) was found to be 48 °C; with HeLa Kyoto [2] (cell cycle stage: mitosis), 50.7 °C. Also, in the data set with HeLa Kyoto [3], the “solubility change mitosis (log2)” value is 0.00906. For the same sequence, the results for the thermal stability score in the data set on HeLa Kyoto [4] (setting [5]) and with HeLa Kyoto [4] (cell cycle stage: mitosis) were 0.62 and 2.56, respectively.
As to “MTTSTLQKAIDLVTKATEEDKAKNYEEALRLYQHAVEYFLHAIKYEAHSDKAKESIRAKCVQYLDRAEKLKDYLRSKEKHGKKPVKENQSEGKGSDSDSEGDNPEKKKLQEQLMGAVVMEKPNIRWNDVAGLEGAKEALKEAVILPIKFPHLFTGKRTPWRGILLFGPPGTGKSYLAKAVATEANNSTFFSVSSSDLMSKWLGESEKLVKNLFELARQHKPSIIFIDEVDSLCGSRNENESEAARRIKTEFLVQMQGVGNNNDGTLVLGATNIPWVLDSAIRRRFEKRIYIPLPEEAARAQMFRLHLGSTPHNLTDANIHELARKTEGYSGADISIIVRDSLMQPVRKVQSATHFKKVCGPSRTNPSMMIDDLLTPCSPGDPGAMEMTWMDVPGDKLLEPVVCMSDMLRSLATTRPTVNADDLLKVKKFSEDFGQES [VPS4A]”, the “solubility in G1/S (log2)” value with HeLa Kyoto [1] worked out at 0.393. Moreover, the melting temperature with HeLa Kyoto [2] (cell cycle stage: G1/S) was 48.6 °C; with HeLa Kyoto [2] (cell cycle stage: mitosis) it was 49.7 °C. Moreover, in the data set on HeLa Kyoto [3], the “solubility change mitosis (log2)” value was -0.128. The thermal stability score in the data set on HeLa Kyoto [4] (setting [5]) was 1.11; with HeLa Kyoto [4] (cell cycle stage: mitosis), 1.47.
